From US20240117030A1 (Pfizer, published 2024) come the findings set out here.

Positions count from the first letter of the chain named. “And” between values parts separate entries of the source, which are not always exact repeats. Equal values may be shown once.

Experiment [1] concerns the target T1, recombinant human IL-4 (human, UniProt P05112 25-153).
T1 sequence (looked up): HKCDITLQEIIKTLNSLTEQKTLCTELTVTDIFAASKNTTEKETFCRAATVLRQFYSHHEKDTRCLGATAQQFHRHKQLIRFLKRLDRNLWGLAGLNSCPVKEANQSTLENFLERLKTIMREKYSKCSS
In words: cell-based or functional assay.

Experiment [2] has as its target T2, recombinant cynomolgus monkey IL-4 (cynomolgus monkey, UniProt P79339 25-153).
T2 construct: also called Cyno IL-4
T2 sequence (looked up): T1 sequence (looked up) with E26K, V29I, F33L
In words: competition ELISA: test species IL-4 against biotinylated human IL-4 for binding to IL4-1305.
Method: (§1) Recombinant human, mouse, rat, dog, and rabbit IL 4 were purchased from R&D Systems (Minneapolis, MN). Recombinant cynomolgus monkey and sheep IL-4 were prepared by Pfizer, Cambridge, MA).

Experiment [3] deals with T3, recombinant dog IL-4 (dog, UniProt O77762 25-132).
T3 sequence (looked up): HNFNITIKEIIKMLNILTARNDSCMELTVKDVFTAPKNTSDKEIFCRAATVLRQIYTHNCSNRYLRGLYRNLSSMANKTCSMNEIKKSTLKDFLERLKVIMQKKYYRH
Described as above.
Method: as §1

Experiment [4] concerns the target T4, recombinant sheep IL-4 (sheep, UniProt P30368 25-135, limits assumed).
T4 sequence (looked up): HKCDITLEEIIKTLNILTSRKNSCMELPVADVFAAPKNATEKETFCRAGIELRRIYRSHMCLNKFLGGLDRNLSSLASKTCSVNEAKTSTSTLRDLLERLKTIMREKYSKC
Described as above.
Method: as §1

In experiment [5] the target is T5, recombinant rabbit IL-4 (rabbit, UniProt Q9MZR8 25-147, limits assumed).
T5 sequence (looked up): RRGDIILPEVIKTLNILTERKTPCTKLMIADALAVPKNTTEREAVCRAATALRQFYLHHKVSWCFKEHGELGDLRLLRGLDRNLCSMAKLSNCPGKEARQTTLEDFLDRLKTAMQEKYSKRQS
The experiment is described as above.
Method: as §1

The target in experiment [6] is T6, recombinant rat IL-4 (rat, UniProt P20096 25-147, limits assumed).
T6 sequence (looked up): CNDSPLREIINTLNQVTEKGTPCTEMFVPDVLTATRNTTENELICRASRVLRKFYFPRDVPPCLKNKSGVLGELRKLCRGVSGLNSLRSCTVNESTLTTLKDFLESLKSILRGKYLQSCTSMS
The description is as above.
Method: as §1

For experiment [7], the target named is T7, recombinant mouse IL-4 (mouse, UniProt P07750 23-140).
T7 sequence (looked up): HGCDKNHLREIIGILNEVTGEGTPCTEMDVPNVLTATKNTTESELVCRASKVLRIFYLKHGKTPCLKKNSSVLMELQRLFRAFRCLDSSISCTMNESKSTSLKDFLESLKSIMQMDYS
Described as above.
Method: as §1

The target in experiment [8] is T8, cynomolgus monkey IL-4 (cynomolgus monkey, UniProt P79339 25-153).
T8 construct: mature; also called cy IL-4; cyno IL-4
T8 sequence (looked up): T1 sequence (looked up) with E26K, V29I, F33L
In words: ELISA: competition with biotinylated human IL-4 for binding to IL4-1305. In general terms: An ELISA detects its analyte on a solid surface through an enzyme-linked reagent.
Method: as §1

Experiment [9] concerns the target T9, mouse IL-4 (mouse, UniProt P07750 23-140).
T9 construct: also called mu IL-4
T9 sequence (looked up): T7 sequence (looked up)
Described as above.
Method: as §1

Experiment [10] deals with T10, rat IL-4 (rat, UniProt P20096 25-147, limits assumed).
T10 construct: also called rt IL-4
T10 sequence (looked up): T6 sequence (looked up)
The description is as above.
Method: as §1

For experiment [11], the target named is T11, rabbit IL-4 (rabbit, UniProt Q9MZR8 25-147, limits assumed).
T11 construct: also called rb IL-4
T11 sequence (looked up): T5 sequence (looked up)
The description is as above.
Method: as §1

Experiment [12] has as its target T12, dog IL-4 (dog, UniProt O77762 25-132).
T12 sequence (looked up): T3 sequence (looked up)
The experiment is described as above.
Method: as §1

Experiment [13] concerns the target T13, sheep IL-4 (sheep, UniProt P30368 25-135, limits assumed).
T13 sequence (looked up): T4 sequence (looked up)
Described as above.
Method: as §1

Experiment [14] deals with T14, recombinant human IL-13 (human, UniProt P35225 35-146). In words: cell-based or functional assay.
In experiment [15] the target is native human IL-13 (human, UniProt P35225 35-146, limits assumed). In words: cell-based or functional assay.
Experiment [16] concerns the target T14, recombinant human IL-13. The experiment in a line: cell-based or functional assay. The source holds these as a separate data set.
Experiment [17] addresses T14, recombinant human IL-13. The experiment in a line: cell-based or functional assay. The source holds these as a separate data set.
Experiment [18] addresses T14, recombinant human IL-13. In words: cell-based or functional assay. The source holds these as a separate data set.
Experiment [19] deals with T15, recombinant cynomolgus monkey IL-13 (cynomolgus monkey, UniProt Q0PW92 19-132).
T15 construct: also called Cyno IL-13
In words: competition ELISA: test species IL-13 against biotinylated human IL-13 for binding to IL13-0001.
From the text: (§2) Recombinant human, mouse, rat, and dog IL 13 were purchased from R&D Systems (Minneapolis, MN). Recombinant sheep and rabbit IL-13 were produced by Pfizer Global Biotechnologies (PGBT, Cambridge, MA). Recombinant cynomolgus monkey IL 13 was purchased from Sino Biological (Beijing, China).

Experiment [20] addresses T16, recombinant dog IL-13 (dog, UniProt Q9N0W9 19-131, limits assumed).
T16 sequence (looked up): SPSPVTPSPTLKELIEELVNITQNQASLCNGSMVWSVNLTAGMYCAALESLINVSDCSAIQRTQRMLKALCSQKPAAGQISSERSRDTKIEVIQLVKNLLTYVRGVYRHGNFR
The experiment is described as above.
From the text: as §2

The target of experiment [21] is T17, recombinant mouse IL-13 (mouse, UniProt P20109 26-131, limits assumed).
T17 sequence (looked up): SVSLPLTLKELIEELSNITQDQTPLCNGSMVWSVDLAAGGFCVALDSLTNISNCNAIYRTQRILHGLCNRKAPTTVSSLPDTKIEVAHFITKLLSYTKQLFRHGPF
The experiment is described as above.
From the text: as §2

T14 sequence (P35225 35-146 limits assumed): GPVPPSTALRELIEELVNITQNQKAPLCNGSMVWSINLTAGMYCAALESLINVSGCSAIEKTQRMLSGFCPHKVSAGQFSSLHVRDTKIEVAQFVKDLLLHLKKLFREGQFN
T15 sequence (Q0PW92 entry or part of it limits assumed): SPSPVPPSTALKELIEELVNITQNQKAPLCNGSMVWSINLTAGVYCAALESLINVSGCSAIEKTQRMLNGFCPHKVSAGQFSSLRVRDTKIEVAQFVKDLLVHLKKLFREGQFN
native human IL-13, sequence (P35225 35-146 limits assumed): as the sequence (P35225 35-146 limits assumed) above

B1: IL4-1305 (antibody, human IgG1, kappa)
heavy: EVTLRESGPALVKPTQTLTLTCTFSGFSLSNFGEGLSWIRQPPGKGLEWLAHIYWDDDKRYNPSLKSRLTISKDTSRNQVVLTMTNMDPVDTATYYCARRETVFYWYFDVWGRGTPVTVSSASTKGPSVFPLAPSSKSTSGGTAALGCLVKDYFPEPVTVSWNSGALTSGVHTFPAVLQSSGLYSLSSVVTVPSSSLGTQTYICNVNHKPSNTKVDKKVEPKSCDKTHTCPPCPAPEAAGAPSVFLFPPKPKDTLMISRTPEVTCVVVDVSHEDPEVKFNWYVDGVEVHNAKTKPREEQYNSTYRVVSVLTVLHQDWLNGKEYKCKVSNKALPAPIEKTISKAKGQPREPQVYTLPPSREEMTKNQVSLTCLVKGFYPSDIAVEWESNGQPENNYKTTPPVLDSDGSFFLYSKLTVDKSRWQQGNVFSCSVMHEALHNHYTQKSLSLSPGK
light: DIQMTQSPSSLSASVGDRVTITCKASQSVDEDGDSYMNWYQQKPGKAPKLLIYAASNLESGVPSRFSGSGSGTDFTLTISSLQPEDFATYYCQQSNEDPPTFGGGTKVEIKRTVAAPSVFIFPPSDEQLKSGTASVVCLLNNFYPREAKVQWKVDNALQSGNSQESVTEQDSKDSTYSLSSTLTLSKADYEKHKVYACEVTHQGLSSPVTKSFNRGEC
Turning to B1, the “IC50 for STAT6 Phosphorylation in gated B Cells, human whole blood” value in [1] amounted to 0.073 nM. In experiment [1], the “IC50 for STAT6 Phosphorylation in gated Monocytes, human whole blood” value was 0.1 nM. The “IC50 for STAT6 Phosphorylation in gated T cells, human whole blood” value in [1] was 0.075 nM. Besides, the binding result is recorded as “binds” in experiment [2]; “no binding” in experiment [3]; “no binding” in experiment [4]; “no binding” in experiment [5]; “no binding” in experiment [6]; “no binding” in [7].

B2: IL4-1305 (antibody, IgG1)
VH: EVTLRESGPALVKPTQTLTLTCTFSGFSLSNFGEGLSWIRQPPGKGLEWLAHIYWDDDKRYNPSLKSRLTISKDTSRNQVVLTMTNMDPVDTATYYCARRETVFYWYFDVWGRGTPVTVSS
light: B1 light
notes: IgG1 effector-null
Consider B2, for which the binding result in experiment [8] is reported as “binds”; in experiment [9] it was “no binding”; in experiment [10], “no binding”; in [11], “no binding”; in experiment [12], “no binding”; in experiment [13], “no binding”.

B3: IL13-0001 (antibody, human IgG1, kappa, V domains shown)
VH: EVQLVESGGGLVQPGGSLRLSCAASGFTFSSYAMSWVRQAPGKGLEWVASISSGDTTYYPDSVKGRFTISRDNAKNSLYLQMNSLRAEDTAVYYCARNEGYYFGLTLWGQGTLVTVSS
VL: DIQMTQSPSSLSASVGDRVTITCKASESVDHFGWSLVHWYQQKPGKAPKLLIYRASNLESGVPSRFSGSGSGTDFTLTISSLQPEDFATYYCQQSNEDPWTFGGGTKVEIKR
notes: also called IL13433-0001; 1RVHC9-VLA4
With B3, the “IC50 (median), Monocyte CD23 expression” value in [14] turned out to be 0.0105 nM. Moreover, the results for the “IC50 (median), STAT6 phosphorylation in HT-29 cells” value in [14] and in experiment [15] were 0.092 nM and 0.079 nM, respectively. Moreover, the “IC50 (median) for STAT6 Phosphorylation in gated B Cells, human whole blood” value in [16] was 0.0665 nM. Moreover, in experiment [16], the “IC50 (median) for STAT6 Phosphorylation in gated Monocytes, human whole blood” value was determined as 0.525 nM. The “IC50 (median), IL-13 induced CD23 expression on human monocytes” value in [17] is 0.00438 nM. In addition, the “IL-13 induced CD23 upregulation (IC50), parental IgG” value in experiment [18] is 0.0047 nM and 0.00438 nM. Further, the binding result in [19] is given as “binds”; in experiment [20] it was “no binding”; in experiment [21], “no binding”.
